Results on one molecule are retold here after patent US20140356359A1 (RINAT NEUROSCIENCE, published 2014).

The target of test [1] is T1, human GHR (as in Tables 1 and 2) (human, UniProt P10912 49-253, limits assumed).
T1 sequence: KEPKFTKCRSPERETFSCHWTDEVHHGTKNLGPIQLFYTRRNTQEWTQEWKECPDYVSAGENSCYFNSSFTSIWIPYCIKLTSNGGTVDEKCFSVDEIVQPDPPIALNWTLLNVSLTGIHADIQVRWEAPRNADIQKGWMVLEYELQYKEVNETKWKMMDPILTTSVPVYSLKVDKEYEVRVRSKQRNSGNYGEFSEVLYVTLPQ
The test is described as follows: Biacore, Fab, 25 C. For orientation: In SPR one partner is held on a chip, and binding of the other changes the refractive index at the surface.

For test [2], the target named is T1, human GHR (as in Tables 1 and 2). The test is described as follows: Biacore, Fab, 37 C.
Test [3] shares this target. The test is described as follows: Biacore, 25 C; 25 C (no asterisk).

B1: SS4 Fab (Fab, V domains shown)
VH: EVQLVESGGGLVKPGGSLRLSCAASGFTFSDAWMDWVRQAPGKGLEWVAEIRSKANNHATYYAESVKGRFTISRDDSKNTLYLQMNSLKTEDTAVYYCTLYRDYWGQGTLVTVSS
VL: EIVLTQSPGTLSLSPGERATLSCTATSSVSSSYLHWYQQKPGQAPRLLIYSTSNLASGIPDRFSGSGSGTDFTLTISRLEPEDFAVYYCHQYHRSTPTFGGGTKVEIK
notes: Fab
As a reminder, the Kd is the constant that tells how readily two partners part at equilibrium. Read a high Kd as lower affinity. B1: the equilibrium dissociation constant (Kd) in test [1] was found to be 0.0284 µM; in test [2] it was 0.124 µM; in test [3], 0.0284 µM.
